Test results from patent publication US20180084767.

Columns and labels:
Assay in all cases: cell_activity
[1] = system: ssTTN 5.1 L TALEN (Xanthomonas (engineered)?); conditions: as pair with 5.1 R; TALEN mRNA transfected
[2] = system: ssTTN 5.1 R TALEN (Xanthomonas (engineered)?); conditions: as pair with 5.1 L; TALEN mRNA transfected
[3] = system: ssTTN 3.1 L TALEN (Xanthomonas (engineered)?); conditions: as pair with 3.1 R; TALEN mRNA transfected
[4] = system: ssTTN 3.1 R TALEN (Xanthomonas (engineered)?); conditions: as pair with 3.1 L; TALEN mRNA transfected
[5] = system: ssBAG3 4.1 L TALEN (Xanthomonas (engineered)?); conditions: as pair with 4.1 R; transfected cells
[6] = system: ssBAG3 4.1 R TALEN (Xanthomonas (engineered)?); conditions: as pair with 4.1 L; transfected cells

With “CAGTCATGCAATTTT (double strand) [ssTTN 5.1 L site]” the activity [1] was 44.9 % editing.

Sequence “CCAATTCCCAAGTAAT (double strand) [ssTTN 5.1 R site]” has an activity [2] of 44.9 % editing.

For “GTCATATCCATAAAAAAC (double strand) [ssTTN 3.1 L site]”, the activity [3] was 60 % editing.

“GTCCTAACATTTTATAT (double strand) [ssTTN 3.1 R site]” gave an activity [4] of 60 % editing.

In the case of “TGAAGGCAAGAAGACAGAC (double strand) [ssBAG3 4.1 L site]”, the activity [5] is reported as 21.3 % editing.

Work on “TGGTCAAATACTCTTCTAT (double strand) [ssBAG3 4.1 R site]” yielded an activity [6] of 21.3 % editing.
